{"source": "IntAct's records for PubMed 19805355", "parents": {"B1": {"name": "ATP-sensitive inward rectifier potassium channel 11 (Homo sapiens), Q14654 (parent)", "chain": "MLSRKGIIPEEYVLTRLAEDPAKPRYRARQRRARFVSKKGNCNVAHKNIREQGRFLQDVFTTLVDLKWPHTLLIFTMSFLCSWLLFAMAWWLIAFAHGDLAPSEGTAEPCVTSIHSFSSAFLFSIEVQVTIGFGGRMVTEECPLAILILIVQNIVGLMINAIMLGCIFMKTAQAHRRAETLIFSKHAVIALRHGRLCFMLRVGDLRKSMIISATIHMQVVRKTTSPEGEVVPLHQVDIPMENGVGGNSIFLVAPLIIYHVIDANSPLYDLAPSDLHHHQDLEIIVILEGVVETTGITTQARTSYLADEILWGQRFVPIVAEEDGRYSVDYSKFGNTVKVPTPLCTARQLDEDHSLLEALTLASARGPLRKRSVPMAKAKPKFSISPDSLS"}}}
{"variants_of": "B1", "details": "with ank2_human ANK2, Q01484"}
{"variant": "E322K", "effect of a mutation on the interaction": "decreasing interaction"}
{"variants_of": "B1", "details": "with ank2_human ANK2, Q01484", "remark": "another data set of the same source"}
{"variant": "E322K", "effect of a mutation on the interaction": "disrupting interaction"}
{"variant": "E321K", "effect of a mutation on the interaction": "disrupting interaction"}
{"variant": "D323K", "effect of a mutation on the interaction": "disrupting interaction"}
